Test results published in US20240148892A1 (DUALITY BIOLOGICS SUZHOU, published 2024).

What was measured:
Assay in all cases: ELISA, B7 family protein immobilized on plate, serially diluted antibody
Human PD-L1, His Tag = molecular target: T1, Human PD-L1, His Tag (human, UniProt Q9NZQ7 19-238)
T1 construct: Bought protein; also called human PD-L1 protein; ACRO PD1-H5229; not shown: His tag
Experimental: (§1) Human PD-Ll protein (see the table above), human B7-H2 protein, human B7-H3 protein, human B7-H4 protein, human B7-H5 protein, human B7-H6 protein, human B7-1 protein, human B7-2 protein, human PD-L2 protein, human B7-H7 protein, and human BTNL2 protein were separately immobilized on 96-well plates by incubation at 4° C. overnight. The 96-well plates were then blocked by incubation with 1% BSA in PBS at 37° C. for 1 h. After blocking, the 96-well plates were washed 3 times with PBST (PBS containing 0.05% Tween 20). […] After incubation, the 96-well plates were washed 3 times with PBST, incubated with a secondary antibody (see the table above) in binding buffer at 37° C. for 1 h, and then washed again. TMB was added for color development, and the reaction was stopped by 1 M H₂SO₄.

Human B7-H6 = molecular target: T2, Human B7-H6 (human, UniProt Q68D85 25-262)
T2 construct: Bought protein; also called human B7-H6 protein; ACRO B76-H52H8
T2 sequence (looked up): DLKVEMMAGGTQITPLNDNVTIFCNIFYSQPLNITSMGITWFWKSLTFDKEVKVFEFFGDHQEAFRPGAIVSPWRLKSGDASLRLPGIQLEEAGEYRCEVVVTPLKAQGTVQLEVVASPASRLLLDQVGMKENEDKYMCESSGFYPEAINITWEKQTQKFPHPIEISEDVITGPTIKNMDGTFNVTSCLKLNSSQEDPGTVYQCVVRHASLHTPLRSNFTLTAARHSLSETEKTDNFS
Experimental: as §1

[1] = molecular target: T3, Human B7-H4 protein, His Tag (human, UniProt Q7Z7D3 29-258)
T3 construct: Bought protein; also called ACRO B74-H5222; not shown: His tag
T3 sequence (looked up): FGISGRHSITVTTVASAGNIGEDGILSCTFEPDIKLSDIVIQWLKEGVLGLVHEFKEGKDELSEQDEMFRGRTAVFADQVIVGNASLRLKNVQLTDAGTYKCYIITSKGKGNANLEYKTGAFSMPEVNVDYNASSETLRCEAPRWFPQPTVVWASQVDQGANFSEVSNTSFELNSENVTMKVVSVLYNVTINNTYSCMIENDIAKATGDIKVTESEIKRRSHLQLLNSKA
Experimental: as §1

[2] = molecular target: T4, Human PD-L2, His Tag (confirmed by SPR) (human, UniProt Q9BQ51 20-219)
T4 construct: Bought protein; also called human PD-L2 protein; ACRO PD2-H5220; not shown: His tag
T4 sequence (looked up): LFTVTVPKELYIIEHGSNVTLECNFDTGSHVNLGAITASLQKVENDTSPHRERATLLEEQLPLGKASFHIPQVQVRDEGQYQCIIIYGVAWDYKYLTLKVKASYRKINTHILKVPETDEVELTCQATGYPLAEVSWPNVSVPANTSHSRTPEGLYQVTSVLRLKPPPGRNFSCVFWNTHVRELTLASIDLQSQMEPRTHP
Experimental: as §1

[3] = molecular target: T5, Human B7-1 protein, His Tag (human, UniProt P33681 35-242)
T5 construct: Bought protein; also called ACRO B71-H5228; not shown: His tag
T5 sequence (looked up): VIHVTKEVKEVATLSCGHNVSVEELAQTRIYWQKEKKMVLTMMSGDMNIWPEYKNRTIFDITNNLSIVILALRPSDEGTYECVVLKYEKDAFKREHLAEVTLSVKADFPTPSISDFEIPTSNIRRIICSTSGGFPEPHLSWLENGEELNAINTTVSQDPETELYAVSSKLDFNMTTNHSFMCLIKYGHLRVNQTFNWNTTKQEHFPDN
Experimental: as §1

Human B7-H2, His Tag = molecular target: T6, Human B7-H2, His Tag (human, UniProt O75144 19-258)
T6 construct: Bought protein; also called human B7-H2 protein; ACRO B72-H5221; not shown: His tag
T6 sequence (looked up): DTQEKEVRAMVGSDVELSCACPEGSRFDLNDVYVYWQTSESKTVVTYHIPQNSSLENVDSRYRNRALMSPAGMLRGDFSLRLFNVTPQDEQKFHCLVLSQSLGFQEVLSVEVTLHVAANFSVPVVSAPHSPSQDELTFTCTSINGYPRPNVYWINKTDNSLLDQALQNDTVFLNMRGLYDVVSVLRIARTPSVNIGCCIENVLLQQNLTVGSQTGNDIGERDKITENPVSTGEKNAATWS
Experimental: as §1

Human B7-H7, His Tag = molecular target: T7, Human B7-H7, His Tag (human, UniProt Q9UM44 23-344)
T7 construct: Bought protein; also called human B7-H7 protein; ACRO B77-H52H5; not shown: His tag
T7 sequence (looked up): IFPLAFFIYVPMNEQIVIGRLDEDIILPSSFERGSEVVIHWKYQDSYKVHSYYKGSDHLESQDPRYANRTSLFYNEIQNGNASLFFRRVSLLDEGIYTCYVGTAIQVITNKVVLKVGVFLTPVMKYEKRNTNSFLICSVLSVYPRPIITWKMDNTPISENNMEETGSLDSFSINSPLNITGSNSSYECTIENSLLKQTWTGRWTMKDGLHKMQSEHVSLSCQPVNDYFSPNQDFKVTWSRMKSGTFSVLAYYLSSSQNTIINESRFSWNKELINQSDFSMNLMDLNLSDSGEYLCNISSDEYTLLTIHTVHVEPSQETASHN
Experimental: as §1

Human B7-H5, His Tag = molecular target: T8, Human B7-H5, His Tag (human, UniProt Q9H7M9 33-194)
T8 construct: Bought protein; also called human B7-H5 protein; ACRO B75-H52H0; not shown: His tag
T8 sequence (looked up): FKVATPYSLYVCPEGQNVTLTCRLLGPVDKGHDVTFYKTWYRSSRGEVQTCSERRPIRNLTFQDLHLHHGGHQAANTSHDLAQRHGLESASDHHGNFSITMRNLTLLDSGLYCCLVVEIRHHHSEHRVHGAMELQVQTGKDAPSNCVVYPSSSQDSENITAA
Experimental: as §1

Measured: binding result

T1 sequence (Q9NZQ7 19-238 limits assumed): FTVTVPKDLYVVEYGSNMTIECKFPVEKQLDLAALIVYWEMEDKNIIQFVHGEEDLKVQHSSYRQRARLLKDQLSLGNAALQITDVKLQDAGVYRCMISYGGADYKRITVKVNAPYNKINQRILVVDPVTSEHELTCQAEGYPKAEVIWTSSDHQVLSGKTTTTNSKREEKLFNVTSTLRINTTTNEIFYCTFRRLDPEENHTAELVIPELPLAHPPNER

B1: W301088-1.145.16-z3-p1-uIgG1KV320 (antibody, V domains shown)
VH: QVQLQESGPGLVKPSQTLSLTCTVTDYSITGDYAWNWIRQHPGKGLEWIGYISYSGSTSYNPSLQSRVTISRDTSKNQFSLKLSSVTAADTAVYFCARSLGRRWYFVVWGQGTTVTVSS
VL: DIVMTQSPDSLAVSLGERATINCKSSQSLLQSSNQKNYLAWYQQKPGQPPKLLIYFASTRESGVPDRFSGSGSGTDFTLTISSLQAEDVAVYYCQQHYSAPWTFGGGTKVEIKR
notes: Humanized, PTM-removed (VL N027dQ) human IgG1 LALA kappa antibody; also called WBP301088; W301088-z3-p1
no binding: Human PD-L1, His Tag | Human B7-H6 | [1] | [2] | [3] | Human B7-H2, His Tag | Human B7-H7, His Tag | Human B7-H5, His Tag
